The experiment deals with recombinant gp140 from the clade C strain 92BR025 (HIV antigen), Sino Biological, Inc. (HIV, clade C strain 92BR025). Kind of experiment: SPR, Biacore T200; gp140 immobilized, GRFT as analyte at 12.5-400 nM; heterogeneous ligand model; mean ± SD of replicates. (In general: SPR reads the build-up and loss of mass on a sensor chip optically.)
Chain of recombinant gp140 from the clade C strain 92BR025 (HIV antigen), Sino Biological, Inc. (HIV, clade C strain 92BR025) (O12164 32-677): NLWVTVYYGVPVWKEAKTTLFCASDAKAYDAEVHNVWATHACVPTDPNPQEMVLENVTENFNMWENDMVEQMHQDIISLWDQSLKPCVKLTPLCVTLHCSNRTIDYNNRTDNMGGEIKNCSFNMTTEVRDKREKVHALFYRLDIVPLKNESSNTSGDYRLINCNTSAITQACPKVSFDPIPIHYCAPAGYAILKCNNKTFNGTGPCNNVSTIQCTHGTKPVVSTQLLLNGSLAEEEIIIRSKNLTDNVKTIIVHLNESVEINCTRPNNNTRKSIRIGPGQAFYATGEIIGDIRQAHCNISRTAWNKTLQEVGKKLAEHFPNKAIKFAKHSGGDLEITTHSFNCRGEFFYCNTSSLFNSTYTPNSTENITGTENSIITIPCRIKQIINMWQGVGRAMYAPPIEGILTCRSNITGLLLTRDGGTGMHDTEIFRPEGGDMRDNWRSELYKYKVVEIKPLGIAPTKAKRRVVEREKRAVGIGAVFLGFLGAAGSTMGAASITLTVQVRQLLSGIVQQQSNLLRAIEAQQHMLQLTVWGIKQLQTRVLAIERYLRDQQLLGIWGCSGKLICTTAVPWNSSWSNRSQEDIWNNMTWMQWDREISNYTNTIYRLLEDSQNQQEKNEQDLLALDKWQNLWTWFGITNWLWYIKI

One may read the Kd as the free concentration of one partner at which half of the binding sites on the other are occupied at equilibrium, for simple one-to-one binding. Take “precipitation-purified Griffithsin (GRFT), recombinant, expressed in E. coli strain DLF_0025 from plasmid pHC-Kan-phoAp-GRFT (from UniProt P84801 1-121)”: the Kd was found to be 4.4 nM.

The values above are taken from patent US20230257791A1.
